Sequences and labels used below:
B1: α-subunit of mature human C-P4H-II (enzyme, UniProt O15460-1 22-535, looked up)
chain: EFFTSIGHMTDLIYAEKELVQSLKEYILVEEAKLSKIKSWANKMEALTSKSAADAEGYLAHPVNAYKLVKRLNTDWPALEDLVLQDSAAGFIANLSVQRQFFPTDEDEIGAAKALMRLQDTYRLDPGTISRGELPGTKYQAMLSVDDCFGMGRSAYNEGDYYHTVLWMEQVLKQLDAGEEATTTKSQVLDYLSYAVFQLGDLHRALELTRRLLSLDPSHERAGGNLRYFEQLLEEEREKTLTNQTEAELATPEGIYERPVDYLPERDVYESLCRGEGVKLTPRRQKRLFCRYHHGNRAPQLLIAPFKEEDEWDSPHIVRYYDVMSDEEIERIKEIAKPKLARATVRDPKTGVLTVASYRVSKSSWLEEDDDPVVARVNRRMQHITGLTVKTAELLQVANYGVGGQYEPHFDFSRNDERDTFKHLGTGNRVATFLNYMSDVEAGGATVFPDLGAAIWPKKGTAVFWYNLLRSGEGDYRTRHAACPVLVGCKWVSNKWFHERGQEFLRPCGSTEVD
notes: collagen prolyl 4-hydroxylase α(II) subunit, human, isoform-IIb splice variant (exon 12b); the complex is called mature C-P4H-II; codon-optimized gene; also called α(II); Hs-α(II); source: E. coli K12, polycistronic CyDisCo plasmid, coexpressed with β/PDI and yeast Erv1; purified (Talon IMAC, HiTrap Q, Superdex 200); not shown: His6, N-terminal, kept
B2: protein disulfide isomerase, the β-subunit of C-P4H (enzyme)
chain: not shown
notes: protein disulfide isomerase, human, called the intact or complete β/PDI subunit, without a tag; codon-optimized gene; the crystal model starts at Glu21; Made in the E. coli cytoplasm, so probably without the signal peptide (my surmise); also called PDI; β/PDI subunit; source: E. coli K12, polycistronic CyDisCo plasmid, coexpressed with the α-subunit and yeast Erv1; co-purified with the His-tagged …
B3: α-subunit of human C-P4H-II truncated to the catalytic (CAT) domain, construct C-P4H-II-Δ281 (domain or fragment, UniProt O15460-1 282-535, looked up)
chain: DYLPERDVYESLCRGEGVKLTPRRQKRLFCRYHHGNRAPQLLIAPFKEEDEWDSPHIVRYYDVMSDEEIERIKEIAKPKLARATVRDPKTGVLTVASYRVSKSSWLEEDDDPVVARVNRRMQHITGLTVKTAELLQVANYGVGGQYEPHFDFSRNDERDTFKHLGTGNRVATFLNYMSDVEAGGATVFPDLGAAIWPKKGTAVFWYNLLRSGEGDYRTRHAACPVLVGCKWVSNKWFHERGQEFLRPCGSTEVD
notes: residues 534-535 are named as the C-terminal residues; codon-optimized gene; Linked to PDI in the crystal by intersubunit disulfide bridges (Cys311-Cys397, Cys529-Cys53); also called Hs-α(II) from D282; source: E. coli K12, polycistronic CyDisCo plasmid, coexpressed with β/PDI and yeast Erv1; purified (Talon IMAC, HiTrap Q, Superdex 200)
B4: α-subunit of human C-P4H-II lacking the N-terminal dimerization domain, construct C-P4H-II-Δ140 (domain or fragment, UniProt O15460-1 141-535, looked up)
chain: DTYRLDPGTISRGELPGTKYQAMLSVDDCFGMGRSAYNEGDYYHTVLWMEQVLKQLDAGEEATTTKSQVLDYLSYAVFQLGDLHRALELTRRLLSLDPSHERAGGNLRYFEQLLEEEREKTLTNQTEAELATPEGIYERPVDYLPERDVYESLCRGEGVKLTPRRQKRLFCRYHHGNRAPQLLIAPFKEEDEWDSPHIVRYYDVMSDEEIERIKEIAKPKLARATVRDPKTGVLTVASYRVSKSSWLEEDDDPVVARVNRRMQHITGLTVKTAELLQVANYGVGGQYEPHFDFSRNDERDTFKHLGTGNRVATFLNYMSDVEAGGATVFPDLGAAIWPKKGTAVFWYNLLRSGEGDYRTRHAACPVLVGCKWVSNKWFHERGQEFLRPCGSTEVD
notes: collagen prolyl 4-hydroxylase α(II) subunit, human, isoform-IIb splice variant (exon 12b), first 140 residues deleted, starts at Asp141; holds the PSB and CAT domains; codon-optimized gene; also called PSB and CAT; Hs-α(II) from D141; source: E. coli K12, polycistronic CyDisCo plasmid, coexpressed with β/PDI and yeast Erv1; purified (Talon IMAC, HiTrap Q, Superdex 200); not shown: His6, …

Series [1] deals with the molecule itself. Put plainly: SEC-MALS; purified, frozen-thawed co-expressed complex on Superdex 200 Increase 10/300 GL in SEC buffer (50 mM Tris, pH 7.8, 50 mM NaCl, 100 mM glycine). For orientation: In gel filtration, larger molecules generally elute earlier.
Series [2] deals with B1. Put plainly: co-purification; His6-tagged α-subunit coexpressed with untagged β/PDI in E. coli (CyDisCo); Talon IMAC from the lysate, HiTrap Q, Superdex 200, 4 °C, Tris pH 7.8; subunits found in the purified sample by SDS-PAGE and MS. As to conditions: partners not purified.
In series [3] the target is B2. As to the kind of experiment: SEC-MALS; purified, frozen-thawed co-expressed complex on Superdex 200 Increase 10/300 GL in SEC buffer (50 mM Tris, pH 7.8, 50 mM NaCl, 100 mM glycine). As to conditions: both partners purified.
In series [4] the target is B2. Put plainly: co-purification; His6-tagged α-subunit coexpressed with untagged β/PDI in E. coli (CyDisCo); Talon IMAC from the lysate, HiTrap Q, Superdex 200, 4 °C, Tris pH 7.8; subunits found in the purified sample by SDS-PAGE and MS. The note with it: partners not purified.

On to B1, for which the binding result in series [1] is “binds”.
In the case of B2, in series [2], the binding result is listed as “binds”.
Regarding B3, the binding result in series [3] is “binds”.
For the molecule B4, the binding result in series [4] is “binds”.

(Values after PMC9676403, “Crystal structure of the collagen prolyl 4-hydroxylase (C-P4H) catalytic domain complexed with PDI: Toward a model of the C-P4H α2β2 tetramer” (The Journal of Biological Chemistry, 2022).)
